# Data: PMC2797447 (Blood cells, molecules & diseases, 2009)
# Target: the molecule itself
# Assay: cross-linking
protein,measurement,value
"mouse Kcc1 K-Cl cotransporter (natural protein, UniProt Q9JIS8 1-1085, looked up) MPHFTVVPVDGPRRGDYDNLEGLSWVDYGERAEREDSDGQGNHRENSPFLCPLDASRGNDYYDRNLALFEEELDIRPKVSSLLGKLVSYTNLTQGAKEHEEAESGEGGRRRAAKAPSMGTLMGVYLPCLQNIFGVILFLRLTWMVGTAGVLQALLIVLICCCCTLLTAISMSAIATNGVVPAGGSYFMISRSLGPEFGGAVGLCFYLGTTFAAAMYILGAIEILLTYIAPPAAIFYPSGTHDMSSATLNNMRVYGTIFLTLMTLVVFVGVKYVNKFASLFLACVIISILSIYAGGIKSIFDPPVFPVCMLGNRTLSRDQFDICAKTVVVDNETVATRLWTFFCHSPNLTADSCDPYFLLNNVTEIPGIPGAAAGVLQENLWSAYLEKGEVVEKHGLPSTDTLGLKESLSLYVVADIATSFTVLVGIFFPSVTGIMAGSNRSGDLRDAQKSIPVGTILAIVTTSLVYFSSVILFGACIEGVVLRDKYGDGVSRNLVVGTLAWPSPWVIVVGSFFSTCGAGLQSLTGAPRLLQAIAKDNIIPFLRVFGHGKANGEPTWALLLTALIAELGILIASLDMVAPILSMFFLMCYLFVNLACAVQTLLRTPNWRPRFKYYHWTLSFLGMSLCLALMFVSSWYYALVAMLIAGMIYKYIEYQGAEKEWGDGIRGLSLSAARYALLRLEEGPPHTKNWRPQLLVLLKLDEDLHVKYPRLLTFASQLKAGKGLTIVGSVIQGSFLESYGEAQAAEQTIKNMMDIEKVKGFCQVVVASKVREGLAHLIQSCGLGGMRHNSVVLGWPYGWRQSEDPRAWKTFIDTVRCTTAAHLALLVPKNIAFYPSNHERYLDGHIDVWWIVHDGGMLMLLPFLLRQHKVWKKCRMRIFTVAQMDDNSIQMKKDLAIFLYHLRLEAEVEVVEMHNSDISAYTYERTLMMEQRSQMLRQMRLTKTERDREAQLVKDRHSALRLESLYSDEEEESVAGADKIQMTWTRDKYMAEPWDPSHAPDNFRELVHIKPDQSNVRRMHTAVKLNEVIVTRSHDARLVLLNMPGPPKNSEGDENYMEFLEVLTEGLERVLLVRGGGREVITIYS",stoichiometry N,~2
